Results from patent publication US20060063231, “Compositions and methods for protein production” (Sangamo BioSciences, Inc., published 2006).

Biological target: 2392/10 ZFP-VP16 fusion (Artificial Sequence)
Assay: cell_activity; Epo secretion, 2392/10-7 CHO cells; additional three-fold over CMV promoter
Text: Three different erythropoietin (Epo)-expressing constructs were constructed. In the first, Epo expression was controlled by a CMV promoter fused to a β-globin intron (CMV). In the second, Epo expression was controlled by a CMV promoter containing ten upstream copies of the 2392/10 binding site, fused to a β-globin intron (CMVz10, Example 6). In the third, Epo expression was controlled by a SRα promoter with six additional copies of the 2392/10 binding site immediately upstream of the promoter (SRαZ6, Example 5). The three constructs were transiently transfected into either parental DG44 CHO cells or the ZFP-expressing 2392/10-7 cell line. After 24 hours, Epo secretion was measured by ELISA.

B1: CMVz10 promoter target-site insert (dsDNA)
DNA 1: ACGCGTTCATTCCACAGCTCTCATTCCACAGCTCTCATTCCACAGCTCTCATTCCACAGCTCTCATTCCACAGCTCTCATTCCACAGCTCTCATTCCACAGCTCTCATTCCACAGCTCTCATTCCACAGCTCTCATTCCACAGTCACGCGT
DNA 2: ACGCGTGACTGTGGAATGAGAGCTGTGGAATGAGAGCTGTGGAATGAGAGCTGTGGAATGAGAGCTGTGGAATGAGAGCTGTGGAATGAGAGCTGTGGAATGAGAGCTGTGGAATGAGAGCTGTGGAATGAGAGCTGTGGAATGAACGCGT
Question: For B1, which activity is on record?
Answer: The activity was 3 fold activation.
